Source: patent publication US11795460B2, “Compositions and methods for TTR gene editing and treating ATTR amyloidosis” (Intellia Therapeutics, Inc., priority 2017, dated 2023)
Strand notation (5' to 3'): a small letter for the sugar, then the base; units joined by * are phosphorothioate-linked, units joined directly phosphodiester-linked; [ ] holds rarer units or linkages, { } end groups; capitals alone tell only the bases. m = 2'-O-methyl; r = 2'-OH (RNA)

B1: G000494: TTR sgRNA modified sequence, Human, SEQ ID No. 101; guide sequence of CR003360 (nucleic acid)
guide: mG*mU*mG*rArGrUrCrUrGrGrArGrArGrCrUrGrCrArUrGrUrUrUrUrArGrAmGmCmUmAmGmAmAmAmUmAmGmCrArArGrUrUrArArArArUrArArGrGrCrUrArGrUrCrCrGrUrUrArUrCrAmAmCmUmUmGmAmAmAmAmAmGmUmGmGmCmAmCmCmGmAmGmUmCmGmGmUmGmCmU*mU*mU*mU
B2: G000499: TTR sgRNA modified sequence, Human, SEQ ID No. 106; guide sequence of CR005303 (nucleic acid)
guide: mU*mG*mA*rArUrCrCrArArGrUrGrUrCrCrUrCrUrGrArGrUrUrUrUrArGrAmGmCmUmAmGmAmAmAmUmAmGmCrArArGrUrUrArArArArUrArArGrGrCrUrArGrUrCrCrGrUrUrArUrCrAmAmCmUmUmGmAmAmAmAmAmGmUmGmGmCmAmCmCmGmAmGmUmCmGmGmUmGmCmU*mU*mU*mU
B3: G000480: TTR sgRNA modified sequence, Human, SEQ ID No. 87; guide sequence of CR003353 (nucleic acid)
guide: mA*mA*mA*rGrGrCrUrGrCrUrGrArUrGrArCrArCrCrUrGrUrUrUrUrArGrAmGmCmUmAmGmAmAmAmUmAmGmCrArArGrUrUrArArArArUrArArGrGrCrUrArGrUrCrCrGrUrUrArUrCrAmAmCmUmUmGmAmAmAmAmAmGmUmGmGmCmAmCmCmGmAmGmUmCmGmGmUmGmCmU*mU*mU*mU
B4: G000489: TTR sgRNA modified sequence, Human, SEQ ID No. 96; guide sequence of CR003344 (nucleic acid)
guide: mU*mU*mU*rGrArCrCrArUrCrArGrArGrGrArCrArCrUrGrUrUrUrUrArGrAmGmCmUmAmGmAmAmAmUmAmGmCrArArGrUrUrArArArArUrArArGrGrCrUrArGrUrCrCrGrUrUrArUrCrAmAmCmUmUmGmAmAmAmAmAmGmUmGmGmCmAmCmCmGmAmGmUmCmGmGmUmGmCmU*mU*mU*mU
B5: G000481: TTR sgRNA modified sequence, Human, SEQ ID No. 88; guide sequence of CR003345 (nucleic acid)
guide: mU*mC*mU*rArGrArArCrUrUrUrGrArCrCrArUrCrArGrGrUrUrUrUrArGrAmGmCmUmAmGmAmAmAmUmAmGmCrArArGrUrUrArArArArUrArArGrGrCrUrArGrUrCrCrGrUrUrArUrCrAmAmCmUmUmGmAmAmAmAmAmGmUmGmGmCmAmCmCmGmAmGmUmCmGmGmUmGmCmU*mU*mU*mU

Key:
TTR [1] = assay: TTR editing in primary cyno hepatocytes treated with LNP formulated Spy Cas9 mRNA (SEQ ID NO: 2) and sgRNAs (Tables 17, 18); assay type: cell-based, cynomolgus monkey; details: Table 17, LNP formulated Spy Cas9 mRNA (SEQ ID NO: 2) and sgRNA, 12.5 ng mRNA, 3.9 nM sgRNA, 72 hours
Summary of the method: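 Primary cynomolgus hepatocytes, 24 h after plating, dosed with LNPs (N:P about 4.5 or 6, mRNA:gRNA 1:1 by weight) pre-incubated 5 min at 37° C. in medium with 6% cyno serum, in an 8-point 2-fold dose response. Editing = indel/substitution reads over total reads by amplicon MiSeq sequencing.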

TTR [2] = assay: TTR editing in primary human hepatocytes treated with LNP formulated Spy Cas9 mRNA (SEQ ID NO: 2) and sgRNAs (Table 16); assay type: cell-based; details: LNP formulated Spy Cas9 mRNA (SEQ ID NO: 2) and sgRNA, 72 hours
Description: (§1) Primary liver hepatocytes. Primary human liver hepatocytes (PHH) and primary cynomolgus liver hepatocytes (PCH) (Gibco) were cultured per the manufacturer's protocol (Invitrogen, protocol 11.28.2012). In brief, the cells were thawed and resuspended in hepatocyte thawing medium with supplements (Gibco, Cat. CM7000) followed by centrifugation at 100 g for 10 minutes for human and 80 g for 4 minutes for cyno. The supernatant was discarded and the pelleted cells resuspended in hepatocyte plating medium plus supplement pack (Invitrogen, Cat. A1217601 and CM3000). Cells were counted and plated on Bio-coat collagen I coated 96-well plates (ThermoFisher, Cat. 877272) at a density of 33,000 cells/well for human or 60,000 cells/well for cyno (or 65,000 cells/well when assaying effects on TTR protein, described further below). Plated cells were allowed to settle and adhere for 6 or 24 hours in a tissue culture incubator at 37° C. and 5% CO2 atmosphere. After incubation cells were checked for monolayer formation and media was replaced with hepatocyte culture medium with serum-free supplement pack (Invitrogen, Cat. A1217601 and CM4000).
In general, the lipid nanoparticle components were dissolved in 100% ethanol with the lipid component of various molar ratios. The RNA cargos were dissolved in 25 mM citrate, 100 mM NaCl, pH 5.0, resulting in a concentration of RNA cargo of approximately 0.45 mg/mL. The LNPs were formulated with a lipid amine to RNA phosphate (N:P) molar ratio of about 4.5 or about 6, with the ratio of mRNA to gRNA at 1:1 by weight.
The LNPs were formed by microfluidic mixing of the lipid and RNA solutions using a Precision Nanosystems NanoAssemblr™ Benchtop Instrument, according to the manufacturer's protocol. A 2:1 ratio of aqueous to organic solvent was maintained during mixing using differential flow rates. After mixing, the LNPs were collected, diluted in water (approximately 1:1 v/v), held for 1 hour at room temperature, and further diluted with water (approximately 1:1 v/v) before final buffer exchange. The final buffer exchange into 50 mM Tris, 45 mM NaCl, 5% (w/v) sucrose, pH 7.5 (TSS) was completed with PD-10 desalting columns (GE). If required, formulations were concentrated by centrifugation with Amicon 100 kDa centrifugal filters (Millipore). The resulting mixture was then filtered using a 0.2 μm sterile filter. The final LNP was stored at −80° C. until further use.
(§2) To quantitatively determine the efficiency of editing at the target location in the genome, sequencing was utilized to identify the presence of insertions and deletions introduced by gene editing.
(§3) Primers were designed around the target site within the gene of interest (e.g. TTR), and the genomic area of interest was amplified.
(§4) Additional PCR was performed per the manufacturer's protocols (Illumina) to add chemistry for sequencing. The amplicons were sequenced on an Illumina MiSeq instrument. The reads were aligned to a reference genome (e.g., the human reference genome (hg38), the cynomologus reference genome (mf5), the rat reference genome (rn6), or the mouse reference genome (mm10)) after eliminating those having low quality scores. The resulting files containing the reads were mapped to the reference genome (BAM files), where reads that overlapped the target region of interest were selected and the number of wild type reads versus the number of reads which contain an insertion, substitution, or deletion was calculated.
(§5) The editing percentage (e.g., the “editing efficiency” or “percent editing” or “indel frequency”) is defined as the total number of sequence reads with insertions/deletions (“indels”) or substitutions over the total number of sequence reads, including wild type.
Lipid nanoparticle formulations of modified sgRNAs targeting human TTR and the cyno matched sgRNA sequences were tested on primary human hepatocytes and primary cyno hepatocytes in a dose response curve. Primary human and cyno hepatocytes were plated as described in Example 1. […]

TTR [3] = assay: TTR editing in primary human hepatocytes transfected with Spy Cas9 protein and sgRNAs (Table 12); assay type: cell-based; details: primary human hepatocytes transfected with Spy Cas9 protein (RNP) and sgRNAs
Description: as §1
Ribonucleotide formation was performed prior to electroporation or transfection of Spy Cas9 protein loaded with guide RNAs (RNPs) onto cells. For dual guide (dgRNAs), individual crRNA and trRNA was pre-annealed by mixing equivalent amounts of reagent and incubating at 95° C. for 2 min and cooling to room temperature. Single guide (sgRNAs) were boiled at 95° C. for 2 min and cooling to room temperature. The boiled dgRNA or sgRNA was incubated with Spy Cas9 protein in Optimem for 10 minutes at room temperature to form a ribonucleoprotein (RNP) complex.
For RNP lipoplex transfections, cells were transfected with Lipofectamine RNAiMAX (ThermoFisher, Cat. 13778150) per the manufacturer's protocol. Cells were transfected with an RNP containing Spy Cas9 (10 nM), individual guide (10 nM), tracer RNA (10 nM), Lipofectamine RNAiMAX (1.0 μL/well) and OptiMem. RNP formation was performed as described above.
Transfected cells were harvested post-transfection at 24, 48, or 72 hours. The genomic DNA was extracted from each well of a 96-well plate using 50 μL/well BuccalAmp DNA Extraction solution (Epicentre, Cat. QE09050) per manufacturer's protocol. All DNA samples were subjected to PCR and subsequent NGS analyses, as described herein.
as §2, §3, §4, §5
Guides in modified sgRNA format targeting human and/or cyno TTR were delivered to primary human hepatocytes and primary cyno hepatocytes as described in Example 1. […]

Row | Molecule | 12.5 ng mRNA, 3.9 nM sgRNA Avg % Edit (TTR [1]) [%] | 12.5 ng mRNA, 3.9 nM sgRNA Avg % Edit (TTR [2]) [%] | Avg % Deletion (TTR [3]) [%] | Avg % Edit (TTR [3]) [%] | Avg % Insert (TTR [3]) [%]
1 | B1 | 14.30 | 6.37 | 0.77 | 62.23 | 61.47
2 | B2 | 14.63 | 16.07 | 1.17 | 66.40 | 65.23
3 | B3 | 0.73 | 59.33 | 4.70 | 81.80 | 77.15
4 | B4 | 31.87 | 16.85 | 9.43 | 60.17 | 51.07
5 | B5 | 49.20 | 24.37 | 19.43 | 46.90 | 27.77
